{"source": "paper PMC6468243", "about": "“Mechanistic characterization of the DEAD-box RNA helicase Ded1 from yeast as revealed by a novel technique using single-molecule magnetic tweezers”", "binders": {"B1": {"name": "ssRNA01 (RNA01) (ssRNA)", "RNA": "UCAUACUUUUCUUUUCUUUUCCAUC"}}, "molecular_target": "Ded1-His6 (Saccharomyces cerevisiae? (paper says …, UniProt P06634 1-604))", "sequence (P06634 whole entry)": "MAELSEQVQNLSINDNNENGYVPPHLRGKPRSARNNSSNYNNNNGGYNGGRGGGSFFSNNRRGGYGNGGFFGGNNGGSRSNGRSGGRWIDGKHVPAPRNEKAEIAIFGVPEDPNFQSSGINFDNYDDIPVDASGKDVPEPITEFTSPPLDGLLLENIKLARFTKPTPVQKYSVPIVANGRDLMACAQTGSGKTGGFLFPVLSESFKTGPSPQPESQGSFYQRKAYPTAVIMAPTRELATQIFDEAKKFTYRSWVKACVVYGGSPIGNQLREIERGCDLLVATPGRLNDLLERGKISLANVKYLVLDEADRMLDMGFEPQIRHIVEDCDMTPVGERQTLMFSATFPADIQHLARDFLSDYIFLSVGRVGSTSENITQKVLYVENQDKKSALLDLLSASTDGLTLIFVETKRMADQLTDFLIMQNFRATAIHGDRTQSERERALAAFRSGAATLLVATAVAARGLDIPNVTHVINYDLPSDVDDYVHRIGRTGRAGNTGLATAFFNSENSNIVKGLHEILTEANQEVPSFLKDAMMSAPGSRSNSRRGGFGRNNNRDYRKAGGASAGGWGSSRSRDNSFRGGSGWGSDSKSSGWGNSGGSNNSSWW", "experiment": "competition (magnetic tweezers displacement assay); 1 mM ATP; 10 nM Ded1; against 200 nM 5'ss-11 bp RNA; effective competitor; Magnetic tweezers, Fhold 7 pN, 10 nM Ded1, 1 mM ATP, 200 nM 5'ss-11 bp RNA; buffer, salt, pH and temperature not in the material. Table 1 and Figures 4-6 (duplex displacement/unwinding kinetics) left out as enzyme activity without a direct binding read-out", "settings": "protein: recombinant; tags: His6 (pET22b); single strand", "data": [{"binder": "B1", "values": [{"measurement": "binding result", "result": "binds"}]}]}
